Tested on: Escherichia coli TOP10
Assay: shrunken log2 fold change of peptide-encoding DNA abundance (4.5 h post-induction vs induction); higher = less antimicrobial activity (less host growth inhibition)
Conditions: time post-induction: 4.5 h; library: site-saturation at positions 5, 18, 19, 20
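Further: peptides expressed intracellularly from a pBAD plasmid library in pooled LB shake-flask culture, induced with 0.3% L-arabinose, DNA abundance read by NGS, three biological replicates, DESeq2 with apeglm shrinkage.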

Sequence | shrunken log2 fold change
RRIRHRPPRLPRPRPRPSCVPRP | -0.308
RRIRHRPPRLPRPRPRPSGAPRP | -0.0845
RRIRHRPPRLPRPRPRPSGYPRP | -0.0698
RRIRHRPPRLPRPRPRPSHGPRP | -0.137
RRIRHRPPRLPRPRPRPSHNPRP | -0.433
RRIRHRPPRLPRPRPRPSILPRP | -0.464
RRIRHRPPRLPRPRPRPSISPRP | -0.727
RRIRHRPPRLPRPRPRPSIWPRP | -0.244
RRIRHRPPRLPRPRPRPSKNPRP | -0.163
RRIRHRPPRLPRPRPRPSLLPRP | -0.287
RRIRHRPPRLPRPRPRPSMCPRP | -0.448
RRIRHRPPRLPRPRPRPSMRPRP | 0.204
RRIRHRPPRLPRPRPRPSQDPRP | -0.032
RRIRHRPPRLPRPRPRPSVCPRP | -0.294
RRIRHRPPRLPRPRPRPSYRPRP | -0.481
RRIRHRPPRLPRPRPRPTADPRP | 0.202
RRIRHRPPRLPRPRPRPTAGPRP | -0.0268
RRIRHRPPRLPRPRPRPTAQPRP | -0.054
RRIRHRPPRLPRPRPRPTCIPRP | -0.147
RRIRHRPPRLPRPRPRPTCNPRP | -0.411
RRIRHRPPRLPRPRPRPTDQPRP | -0.00155
RRIRHRPPRLPRPRPRPTEDPRP | -0.00383

Sequence | shrunken log2 fold change
RRIRHRPPRLPRPRPRPTEGPRP | -0.00285
RRIRHRPPRLPRPRPRPTGFPRP | 0.0428
RRIRHRPPRLPRPRPRPTGNPRP | -0.215
RRIRHRPPRLPRPRPRPTHEPRP | 0.0424
RRIRHRPPRLPRPRPRPTHLPRP | -0.102
RRIRHRPPRLPRPRPRPTIMPRP | -0.362
RRIRHRPPRLPRPRPRPTKEPRP | -0.0586
RRIRHRPPRLPRPRPRPTKGPRP | -0.14
RRIRHRPPRLPRPRPRPTLGPRP | -0.0595
RRIRHRPPRLPRPRPRPTNGPRP | -0.154
RRIRHRPPRLPRPRPRPTPVPRP | 0.137
RRIRHRPPRLPRPRPRPTQKPRP | -0.00748
RRIRHRPPRLPRPRPRPTRNPRP | -0.0346
RRIRHRPPRLPRPRPRPTRWPRP | 0.137
RRIRHRPPRLPRPRPRPTSPPRP | -0.0524
RRIRHRPPRLPRPRPRPTTIPRP | -0.165
RRIRHRPPRLPRPRPRPTTLPRP | -0.301
RRIRHRPPRLPRPRPRPTVMPRP | -0.0285
RRIRHRPPRLPRPRPRPTWQPRP | 0.572
RRIRHRPPRLPRPRPRPVDNPRP | 0.013
RRIRHRPPRLPRPRPRPVFKPRP | 0.126
RRIRHRPPRLPRPRPRPVGIPRP | -0.294

Sequence | shrunken log2 fold change
RRIRHRPPRLPRPRPRPVGLPRP | 0.119
RRIRHRPPRLPRPRPRPVHPPRP | -0.131
RRIRHRPPRLPRPRPRPVIKPRP | -0.0701
RRIRHRPPRLPRPRPRPVKFPRP | -0.0191
RRIRHRPPRLPRPRPRPVKGPRP | -0.079
RRIRHRPPRLPRPRPRPVNYPRP | -0.881
RRIRHRPPRLPRPRPRPVPHPRP | -0.031
RRIRHRPPRLPRPRPRPVRHPRP | 0.251
RRIRHRPPRLPRPRPRPVRYPRP | -0.551
RRIRHRPPRLPRPRPRPVTIPRP | -0.311
RRIRHRPPRLPRPRPRPVTLPRP | -0.175
RRIRHRPPRLPRPRPRPVVWPRP | 0.524
RRIRHRPPRLPRPRPRPVVYPRP | -0.186
RRIRHRPPRLPRPRPRPVWRPRP | 0.0724
RRIRHRPPRLPRPRPRPVWTPRP | -0.225
RRIRHRPPRLPRPRPRPVYEPRP | 0.015
RRIRHRPPRLPRPRPRPVYPPRP | -0.529
RRIRHRPPRLPRPRPRPWCEPRP | 0.0456
RRIRHRPPRLPRPRPRPWDDPRP | -0.0102
RRIRHRPPRLPRPRPRPWDQPRP | 0.0769
RRIRHRPPRLPRPRPRPWFDPRP | -0.0263
RRIRHRPPRLPRPRPRPWFGPRP | -0.0191

Sequence | shrunken log2 fold change
RRIRHRPPRLPRPRPRPWFKPRP | 0.0141
RRIRHRPPRLPRPRPRPWFMPRP | -0.474
RRIRHRPPRLPRPRPRPWFNPRP | -0.153
RRIRHRPPRLPRPRPRPWGAPRP | -0.0102
RRIRHRPPRLPRPRPRPWGLPRP | -0.00494
RRIRHRPPRLPRPRPRPWHEPRP | -0.0659
RRIRHRPPRLPRPRPRPWHWPRP | -0.135
RRIRHRPPRLPRPRPRPWIHPRP | -0.197
RRIRHRPPRLPRPRPRPWKEPRP | -0.0223
RRIRHRPPRLPRPRPRPWKHPRP | -0.0222
RRIRHRPPRLPRPRPRPWMRPRP | 0.101
RRIRHRPPRLPRPRPRPWNFPRP | -0.0202
RRIRHRPPRLPRPRPRPWQLPRP | -0.016
RRIRHRPPRLPRPRPRPWSSPRP | -0.116
RRIRHRPPRLPRPRPRPWSTPRP | -0.0631
RRIRHRPPRLPRPRPRPWTIPRP | -0.0445
RRIRHRPPRLPRPRPRPWTNPRP | -0.101
RRIRHRPPRLPRPRPRPWVEPRP | -0.0959
RRIRHRPPRLPRPRPRPWWIPRP | -0.177
RRIRHRPPRLPRPRPRPWWWPRP | 0.0221
RRIRHRPPRLPRPRPRPWYMPRP | -0.324
RRIRHRPPRLPRPRPRPWYYPRP | -1.47

Sequence | shrunken log2 fold change
RRIRHRPPRLPRPRPRPYDFPRP | -0.0434
RRIRHRPPRLPRPRPRPYEKPRP | -0.195
RRIRHRPPRLPRPRPRPYETPRP | -0.151
RRIRHRPPRLPRPRPRPYGHPRP | -0.551
RRIRHRPPRLPRPRPRPYHPPRP | -0.00776
RRIRHRPPRLPRPRPRPYIAPRP | -0.496
RRIRHRPPRLPRPRPRPYKAPRP | -0.484
RRIRHRPPRLPRPRPRPYKHPRP | -0.512
RRIRHRPPRLPRPRPRPYLEPRP | -0.0394
RRIRHRPPRLPRPRPRPYLFPRP | -0.523
RRIRHRPPRLPRPRPRPYLNPRP | -1.2
RRIRHRPPRLPRPRPRPYMLPRP | -1.66
RRIRHRPPRLPRPRPRPYMPPRP | -0.402
RRIRHRPPRLPRPRPRPYNFPRP | -0.078
RRIRHRPPRLPRPRPRPYNRPRP | -0.0244
RRIRHRPPRLPRPRPRPYQQPRP | -0.032
RRIRHRPPRLPRPRPRPYQYPRP | -0.00963
RRIRHRPPRLPRPRPRPYRDPRP | -0.0135
RRIRHRPPRLPRPRPRPYREPRP | 0.0421
RRIRHRPPRLPRPRPRPYTCPRP | -0.0278
RRIRHRPPRLPRPRPRPYVYPRP | -0.0796

From the supplement of paper PMC9112550, “Optimization of the antimicrobial peptide Bac7 by deep mutational scanning” (BMC Biology, 2022)
